In US9127130B2, “Polylysine dendrimer contrast agent” (STARPHARMA PTY LTD., priority 2006, dated 2015):
Read-outs that look alike come from different tables or passages of the source.

Experiments:
human thrombi = test: MRI of in vitro formed human plasma thrombi stained with Gadolinium loaded antibody-dendrimer constructs; format: cell-based
Method: Antibody-Dendrimer constructs (1.5 nmol) were loaded with Gadolinium by adding 64 nmol GdCl3.6H2O in PBS (0.1M, pH 7.4) overnight at room temperature under shaking. Excess Gadolinium was removed by dialysis (10,000 Dalton dialysis membrane, 12 h against 500 mL PBS with 3 buffer changes every 4 h).
To form human thrombi in vitro 1 mL platelet rich plasma (citrated blood spun down at 1000 rpm for 10 min) was mixed with 100 μL ADP, 88 μL Actin, 25 μL 1 M CaCl2 in a 1.5 mL reaction tube. Samples were incubated for 12 min at 37° C. in a water bath, incubated with antibody-dendrimer fusion product for another 30 min at 37° C. under continuous rotation. Thrombi were washed 3 times with 2 mL PBS for 10 min and fixed in formalin solution (1%) before imaging.
MRI of thrombi was performed on a 4.7 Tesla animal MRI scanner (Biospin Bruker). T1 weighted images with TE/TR 15 ms/350 ms were taken with a resolution of 512×512 μm (FOV 7 cm, average 4). 10 slices of 1 mm thickness were taken.

[1] = cited from earlier work

| Substance | stability of the conjugate ([1]; acidic conditions (pH 4-6)) | stability of the conjugate ([1]; pH 4) | stability of the conjugate ([1]; pH 5) | other results |
| --- | --- | --- | --- | --- |
| MAL-(CH2)2CONH-PEG1100-CO-NEOEOEN[Su(NPN)2][Lys]8[Su-p-Bn-DTPA]16 [Example 7v] | – | – | – | MRI signal, control experiment (human thrombi; non reduced C-terminal cysteine antibody incubated with dendrimer): did not show any MRI signal; MRI signal, control experiment (human thrombi; non-modified antibody (no Traut's reagent) incubated with dendrimer): did not show any MRI signal |
| [TFA.NH2(CH2)5NHSu]NEOEOEN[Su(NPN)2]Lys8[Su-p-Bn-DTPA]16 [Example 9iv] | – | – | – | MRI signal, control experiment (human thrombi; antibody incubated with dendrimer but without the Transglutaminase coupling enzyme): did not show any MRI signal |
| α-methoxy-ω-{N-2-(3-hydroxypropyl-cholesterylcarbarnate)-2-methyl-[1,3]dioxan-5-yl-amido}-polyethyleneglycol110 | not stable | – | – | – |
| α-methoxy-ω-{N-(2-cholesteryloxy-[1,3]dioxolan-4-yl)methylamido}-polyethyleneglycol110 | – | moderately less stable | very stable | – |
| α-methoxy-ω-{N-(2-methyl-s-octadecyloxy-[1,3]dioxan-5-yl)-amido}-polyethyleneglycol110 | not stable | – | – | – |
| α-methoxy-ω-{N-(2-octadecyloxy-[1,3]dioxolan-4-yl)methylamido}-polyethyleneglycol110 | – | good stability | good stability | – |
